Assay results as given in PMC5800818 (2018).

B1: PTBi F75-76A (protein)
chain: SRPHQWQTDEEGVRTGKCSFPVKYLGHVEVDESRGMHICEDAVKRLKAERKFFKGAAGKTGKKAVKAVLWVSADGLRVVDEKTKDLIVDQTIEKVSFCAPDRNFDRAFSYICRDGTTRRWICHCFMAVKDTGERLSHAVGCAFAACLERKQKREKE
B2: Numb-PTBi (Numb^20–175), purified (domain or fragment)
chain: SRPHQWQTDEEGVRTGKCSFPVKYLGHVEVDESRGMHICEDAVKRLKAERKFFKGFFGKTGKKAVKAVLWVSADGLRVVDEKTKDLIVDQTIEKVSFCAPDRNFDRAFSYICRDGTTRRWICHCFMAVKDTGERLSHAVGCAFAACLERKQKREKE
B3: Numb-PTBo, purified (domain or fragment)
chain: SRPHQWQTDEEGVRTGKCSFPVKYLGHVEVDESRGMHICEDAVKRLKATGKKAVKAVLWVSADGLRVVDEKTKDLIVDQTIEKVSFCAPDRNFDRAFSYICRDGTTRRWICHCFMAVKDTGERLSHAVGCAFAACLERKQKREKE
B4: Numb isoform-1 full-length, purified (natural protein)
chain: MNKLRQSFRRKKDVYVPEASRPHQWQTDEEGVRTGKCSFPVKYLGHVEVDESRGMHICEDAVKRLKAERKFFKGFFGKTGKKAVKAVLWVSADGLRVVDEKTKDLIVDQTIEKVSFCAPDRNFDRAFSYICRDGTTRRWICHCFMAVKDTGERLSHAVGCAFAACLERKQKREKECGVTATFDASRTTFTREGSFRVTTATEQAEREEIMKQMQDAKKAETDKIVVGSSVAPGNTAPSPSSPTSPTSDATTSLEMNNPHAIPRRHAPIEQLARQGSFRGFPALSQKMSPFKRQLSLRINELPSTMQRKTDFPIKNAVPEVEGEAESISSLCSQITNAFSTPEDPFSSAPMTKPVTVVAPQSPTFQANGTDSAFHVLAKPAHTALAPVAMPVRETNPWAHAPDAANKEIAATCSGTEWGQSSGAASPGLFQAGHRRTPSEADRWLEEVSKSVRAQQPQASAAPLQPVLQPPPPTAISQPASPFQGNAFLTSQPVPVGVVPALQPAFVPAQSYPVANGMPYPAPNVPVVGITPSQMVANVFGTAGHPQAAHPHQSPSLVRQQTFPHYEASSATTSPFFKPPAQHLNGSAAFNGVDDGRLASADRHTEVPTGTCPVDPFEAQWAALENKSKQRTNPSPTNPFSSDLQKTFEIEL
B5: PTBi in complex with GPpY (complex)
chain 1: SRPHQWQTDEEGVRTGKCSFPVKYLGHVEVDESRGMHICEDAVKRLKAERKFFKGFFGKTGKKAVKAVLWVSADGLRVVDEKTKDLIVDQTIEKVSFCAPDRNFDRAFSYICRDGTTRRWICHCFMAVKDTGERLSHAVGCAFAACLERKQKREKE
chain 2: AYIGPYL
modifications: phosphotyrosine at position 6 (AYIGPpYL)
B6: PTBi F71-72A (protein)
chain: SRPHQWQTDEEGVRTGKCSFPVKYLGHVEVDESRGMHICEDAVKRLKAERKAAKGFFGKTGKKAVKAVLWVSADGLRVVDEKTKDLIVDQTIEKVSFCAPDRNFDRAFSYICRDGTTRRWICHCFMAVKDTGERLSHAVGCAFAACLERKQKREKE
B7: PTBi F71-72-75-76A (protein)
chain: SRPHQWQTDEEGVRTGKCSFPVKYLGHVEVDESRGMHICEDAVKRLKAERKAAKGAAGKTGKKAVKAVLWVSADGLRVVDEKTKDLIVDQTIEKVSFCAPDRNFDRAFSYICRDGTTRRWICHCFMAVKDTGERLSHAVGCAFAACLERKQKREKE

Legend:
[1] = target: T1, rhodamine-labeled Mdm2^216–302 (human, UniProt Q00987-11 216-302, rhodamine label (site not stated)); assay: FP
T1 sequence (Q00987 210-296): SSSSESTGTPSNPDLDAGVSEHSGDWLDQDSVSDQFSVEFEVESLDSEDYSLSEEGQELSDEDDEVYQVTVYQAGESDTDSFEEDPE

[2] = target: T1, rhodamine-labeled Mdm2^216–302; assay: FP; remark: listed apart in the source
[3] = target: T1, rhodamine-labeled Mdm2^216–302; assay: FP; remark: listed apart in the source
[4] = target: T1, rhodamine-labeled Mdm2^216–302; assay: FP; GPpY peptide preassembled with PTBi

Binder	Kd [1]	Kd [2]	Kd [3]	also measured
B1	43.5 µM			
B2		5.5 µM	6.1 µM	
B3		155 µM		
KRLKAERKFFKGFFGKTGKK (other) [thioredoxin-scaffolded Numb^63–82, His fusion]			86 µM	
B4		5.6 µM		
B5				Kd [4]: 5.8 µM
GMHICEDAVKRLKAERKFFKGFFGKTGKKAVKAVLWVS (other) [thioredoxin-scaffolded Numb^54–91, His fusion]			5.1 µM	
B6	29 µM			
B7	60.6 µM			
